Measurements reported in article PMC4254511.

Molecular target: ICP8 (Infected Cell Polypeptide 8, HSV-1 SSB) (herpes simplex virus-1, UniProt P04296 1-1196)
Test: thermal shift assay

Chain of ICP8 (Infected Cell Polypeptide 8, HSV-1 SSB) (P04296 whole entry): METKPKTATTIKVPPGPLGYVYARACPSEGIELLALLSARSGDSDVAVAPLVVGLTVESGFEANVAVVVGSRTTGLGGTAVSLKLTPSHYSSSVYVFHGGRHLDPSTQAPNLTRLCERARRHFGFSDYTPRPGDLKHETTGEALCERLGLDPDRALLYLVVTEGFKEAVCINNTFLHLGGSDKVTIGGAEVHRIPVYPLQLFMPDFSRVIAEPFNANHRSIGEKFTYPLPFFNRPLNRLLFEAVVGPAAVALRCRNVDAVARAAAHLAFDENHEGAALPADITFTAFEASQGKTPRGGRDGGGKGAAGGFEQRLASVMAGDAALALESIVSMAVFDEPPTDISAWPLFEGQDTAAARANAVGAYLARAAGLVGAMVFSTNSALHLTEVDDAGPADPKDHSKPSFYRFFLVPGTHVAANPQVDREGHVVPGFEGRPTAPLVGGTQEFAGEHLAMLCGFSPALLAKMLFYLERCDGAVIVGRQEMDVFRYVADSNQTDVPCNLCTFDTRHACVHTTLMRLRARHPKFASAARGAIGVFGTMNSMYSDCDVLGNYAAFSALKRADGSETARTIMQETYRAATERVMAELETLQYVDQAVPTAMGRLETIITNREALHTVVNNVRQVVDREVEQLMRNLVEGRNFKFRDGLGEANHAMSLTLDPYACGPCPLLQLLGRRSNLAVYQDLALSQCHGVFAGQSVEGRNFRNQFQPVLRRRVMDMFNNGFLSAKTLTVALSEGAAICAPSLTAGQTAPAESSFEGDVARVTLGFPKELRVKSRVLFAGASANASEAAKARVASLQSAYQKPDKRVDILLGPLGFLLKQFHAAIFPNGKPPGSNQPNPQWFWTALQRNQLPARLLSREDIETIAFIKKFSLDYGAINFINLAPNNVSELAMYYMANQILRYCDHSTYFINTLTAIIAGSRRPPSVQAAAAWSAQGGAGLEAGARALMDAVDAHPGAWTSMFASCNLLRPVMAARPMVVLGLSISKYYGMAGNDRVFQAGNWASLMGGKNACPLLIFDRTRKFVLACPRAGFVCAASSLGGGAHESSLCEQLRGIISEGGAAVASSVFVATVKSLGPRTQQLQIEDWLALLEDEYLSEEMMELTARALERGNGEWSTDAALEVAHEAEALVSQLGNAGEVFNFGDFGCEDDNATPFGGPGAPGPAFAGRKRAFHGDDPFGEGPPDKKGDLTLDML

## TTTTTTTTTTTTTTTTTTTT (ssDNA) [(dT)20]
  Kd: < 1000 nM
